Experimental data as given in US20240116985A1 (published 2024).
Starred links: 1 amine or outer side, 2 acyl side, 3 side chain; linkers in the order of their positions; H or OH if unused. Positions of bridges follow the written chain, without caps; N, C: chain ends. Non-standard residues stand in square brackets, D forms with d. Primed or numbered codes have the meaning given here. B5(15) = 2-amino-2-(pent-4-en-1-yl)hept-6-enoic acid (2,2-bis(4-pentenyl)glycine), stitching residue bearing two staples, C=CCCCC(CCCC=C)(N[*:1])C(=O)[*:2]; PyrS2″ = (S)-3-amino-1-((pent-4-en-1-yloxy)carbonyl)pyrrolidine-3-carboxylic acid (stapling residue), C=CCCCOC(=O)N1CC[C@@](N[*:1])(C(=O)[*:2])C1; B5(23) = 2-amino-2-(pent-4-en-1-yl)hept-6-enoic acid (2,2-bis(4-pentenyl)glycine), stitching residue, C=CCCCC(CCCC=C)(N[*:1])C(=O)[*:2]; TfeGA = (S)-2-amino-3-((carboxymethyl)(2,2,2-trifluoroethyl)amino)propanoic acid, O=C([C@H](CN(CC(=O)[*:3])CC(F)(F)F)N[*:1])[*:2]; B5(3) = 2,2-bis(4-pentenyl)glycine (stitching residue), C=CCCCC(CCCC=C)(N[*:1])C(=O)[*:2]; Phe(3-COOH) = N[C@@H](Cc1cccc(C(=O)O)c1)C(=O)O; Bta = N[C@@H](Cc1csc2ccccc12)C(=O)O; αAllylPro = C=CC[C@@]1(C(=O)O)CCCN1; tBuAla = CC(C)(C)C[C@H](N)C(=O)O; 3Thi = N[C@@H](Cc1ccsc1)C(=O)O; S8 = C=CCCCCCC[C@](C)(N)C(=O)O; hSer = N[C@@H](CCO)C(=O)O

B1: I-1539 (peptide)
peptide: XDQXDEAAFQXFXQ
modifications: not fully specified; N-terminal Ac; PL3 at 1, B5 at 4, S8 at 11 (staples PL3-B5 and B5-S8 by olefin metathesis); BztA at 13; C-terminal NH2
notes: Stapled peptide composition; earlier eluting HPLC peak (staple isomer); also called Ac-PL3-Asp-Gln-B5-Asp-Glu-Ala-Ala-Phe-Gln-S8-Phe-BztA-Gln-NH2
B2: I-1544 (peptide)
peptide: XDSXDEAAFQXFXQ
modifications: not fully specified; N-terminal Ac; PL3 at 1, B5 at 4, S8 at 11 (staples PL3-B5 and B5-S8 by olefin metathesis); Hse at 3; BztA at 13; C-terminal NH2
notes: Stapled peptide composition; earlier eluting HPLC peak (staple isomer); also called Ac-PL3-Asp-Hse-B5-Asp-Glu-Ala-Ala-Phe-Gln-S8-Phe-BztA-Gln-NH2
B3: I-1535 (peptide)
peptide: Ac-[αAllylPro]DN[B5(15)]DEAAF[hSer][S8]F[Bta]Q-NH2
modifications: staple 1-4, 4-11; not fully specified; printed as Ac-PL3-Asp-Asn-B5-Asp-Glu-Ala-Ala-Phe-Hse-S8-Phe-BztA-Gln-NH2
notes: Stapled peptide composition; later eluting HPLC peak (staple isomer); also called Ac-PL3-Asp-Asn-B5-Asp-Glu-Ala-Ala-Phe-Hse-S8-Phe-BztA-Gln-NH2
B4: I-1547 (peptide)
peptide: Ac-[αAllylPro]D[hSer][B5(15)]DEAAF[hSer][S8]F[Bta]Q-NH2
modifications: staple 1-4, 4-11; not fully specified; printed as Ac-PL3-Asp-Hse-B5-Asp-Glu-Ala-Ala-Phe-Hse-S8-Phe-BztA-Gln-NH2
notes: Stapled peptide composition; Same description as I-1548; earlier eluting HPLC peak (staple isomer); also called Ac-PL3-Asp-Hse-B5-Asp-Glu-Ala-Ala-Phe-Hse-S8-Phe-BztA-Gln-NH2
B5: I-1534 (peptide)
peptide: Ac-[αAllylPro]DN[B5(15)]DEAAF[hSer][S8]F[Bta]Q-NH2
modifications: staple 1-4, 4-11; not fully specified; printed as Ac-PL3-Asp-Asn-B5-Asp-Glu-Ala-Ala-Phe-Hse-S8-Phe-BztA-Gln-NH2
notes: Stapled peptide composition; Same description as I-1535; earlier eluting HPLC peak (staple isomer); also called Ac-PL3-Asp-Asn-B5-Asp-Glu-Ala-Ala-Phe-Hse-S8-Phe-BztA-Gln-NH2
B6: I-1546 (peptide)
peptide: Ac-[αAllylPro]D[hSer][B5(15)]DEAAFL[S8]F[Bta]Q-NH2
modifications: staple 1-4, 4-11
notes: Stapled peptide composition; also called Ac-PL3-Asp-Hse-B5-Asp-Glu-Ala-Ala-Phe-Leu-S8-Phe-BztA-Gln-NH2
B7: I-1540 (peptide)
peptide: XDQXDEAAFQXFXQ
modifications: not fully specified; N-terminal Ac; PL3 at 1, B5 at 4, S8 at 11 (staples PL3-B5 and B5-S8 by olefin metathesis); BztA at 13; C-terminal NH2
notes: Stapled peptide composition; Same description as I-1539; later eluting HPLC peak (staple isomer); also called Ac-PL3-Asp-Gln-B5-Asp-Glu-Ala-Ala-Phe-Gln-S8-Phe-BztA-Gln-NH2
B8: I-1533 (peptide)
peptide: Ac-[αAllylPro]DN[B5(15)]DEAAFL[S8]F[Bta]Q-NH2
modifications: staple 1-4, 4-11
notes: Stapled peptide composition; also called Ac-PL3-Asp-Asn-B5-Asp-Glu-Ala-Ala-Phe-Leu-S8-Phe-BztA-Gln-NH2
B9: I-1550 (peptide)
peptide: Ac-[αAllylPro]DF[B5(23)]DEAAFL[S8]F[Bta]Q-NH2
modifications: staple 1-4, 4-11
notes: Stapled peptide composition; also called Ac-PL3-Asp-Phe-B5-Asp-Glu-Ala-Ala-Phe-Leu-S8-Phe-BztA-Gln-NH2
B10: I-1552 (peptide)
peptide: Ac-[αAllylPro]DK[B5(23)]DEAAFQ[S8]F[Bta]Q-NH2
modifications: staple 1-4, 4-11
notes: Stapled peptide composition; also called Ac-PL3-Asp-Lys-B5-Asp-Glu-Ala-Ala-Phe-Gln-S8-Phe-BztA-Gln-NH2

biological target: T1, full-length beta-Catenin (Uniprot ID P35222) (Homo sapiens (Human), UniProt P35222 2-781); assay: fluorescence polarization competition; displaces 5FAM-TCF4(10-53) from full-length beta-catenin
T1 construct: full-length; also called bCat; B-Catenin
T1 sequence: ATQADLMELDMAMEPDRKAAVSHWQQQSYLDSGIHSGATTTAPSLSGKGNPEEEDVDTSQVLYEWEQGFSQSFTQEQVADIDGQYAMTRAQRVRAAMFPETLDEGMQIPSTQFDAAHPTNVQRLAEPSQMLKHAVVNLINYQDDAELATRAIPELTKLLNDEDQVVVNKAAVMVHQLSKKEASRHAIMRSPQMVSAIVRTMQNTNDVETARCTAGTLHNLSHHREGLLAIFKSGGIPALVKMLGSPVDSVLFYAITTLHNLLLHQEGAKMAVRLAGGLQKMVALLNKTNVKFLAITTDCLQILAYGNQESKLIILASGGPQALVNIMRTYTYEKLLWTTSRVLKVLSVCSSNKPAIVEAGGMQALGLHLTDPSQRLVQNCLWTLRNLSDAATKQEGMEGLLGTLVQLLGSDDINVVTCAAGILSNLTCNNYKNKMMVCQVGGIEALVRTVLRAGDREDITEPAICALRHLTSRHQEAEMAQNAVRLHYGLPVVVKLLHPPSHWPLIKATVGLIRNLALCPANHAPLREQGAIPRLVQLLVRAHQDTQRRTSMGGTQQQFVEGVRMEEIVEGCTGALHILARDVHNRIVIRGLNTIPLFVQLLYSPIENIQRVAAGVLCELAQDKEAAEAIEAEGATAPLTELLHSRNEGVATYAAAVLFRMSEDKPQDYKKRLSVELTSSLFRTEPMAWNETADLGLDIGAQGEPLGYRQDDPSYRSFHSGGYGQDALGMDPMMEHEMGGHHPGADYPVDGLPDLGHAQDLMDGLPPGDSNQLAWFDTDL
Description: The plate was incubated protected from light for 60 minutes at 20° C. prior to read. Reads were performed on a CLARIOstar plate reader (BMG Labtech) in duplicate, and data were fitted to a 1:1 binding model with hill slope using an in-house script. All provided concentrations are final concentrations.

Going from B1 to B2, the IC50 rises from 36 nM to 61 nM (1.7-fold).

B3 and B4 are within 1.5-fold of each other in IC50: 72 nM for the first, 68 nM for the second.

Compared with B5, B6 is 2.5-fold lower in IC50: 181 nM for the first, 71 nM for the second.

Compared with B7, B8 is 4.5-fold higher in IC50: 17 nM for the first, 76 nM for the second.

Going from B9 to B10, the IC50 rises from 22 nM to 56 nM (2.5-fold).

biological target: T2, B-cat-Halo (beta-catenin HaloTag NanoBRET construct expressed in HEK293 cells) (UniProt P35222 1-781); assay: cell-based or functional assay
T2 sequence (looked up): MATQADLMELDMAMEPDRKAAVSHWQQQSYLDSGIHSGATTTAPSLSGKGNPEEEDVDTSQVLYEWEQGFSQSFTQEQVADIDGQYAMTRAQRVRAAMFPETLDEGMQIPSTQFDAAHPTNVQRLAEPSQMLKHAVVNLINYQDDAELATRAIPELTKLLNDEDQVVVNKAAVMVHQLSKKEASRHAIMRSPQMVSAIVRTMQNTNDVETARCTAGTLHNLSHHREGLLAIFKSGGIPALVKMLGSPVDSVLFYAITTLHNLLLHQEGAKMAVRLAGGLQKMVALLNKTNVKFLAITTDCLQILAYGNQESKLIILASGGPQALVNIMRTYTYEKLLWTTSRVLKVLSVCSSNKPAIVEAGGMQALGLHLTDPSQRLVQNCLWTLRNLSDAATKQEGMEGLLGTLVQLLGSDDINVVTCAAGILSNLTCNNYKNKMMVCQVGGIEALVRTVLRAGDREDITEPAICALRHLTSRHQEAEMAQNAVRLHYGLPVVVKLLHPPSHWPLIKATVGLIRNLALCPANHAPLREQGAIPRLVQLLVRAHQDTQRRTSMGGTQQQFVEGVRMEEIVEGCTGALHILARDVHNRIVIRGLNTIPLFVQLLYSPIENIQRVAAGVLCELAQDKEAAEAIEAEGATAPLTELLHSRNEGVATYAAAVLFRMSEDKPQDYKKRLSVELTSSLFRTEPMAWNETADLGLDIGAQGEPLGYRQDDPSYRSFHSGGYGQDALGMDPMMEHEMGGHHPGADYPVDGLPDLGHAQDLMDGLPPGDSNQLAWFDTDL

B1 and B2 cannot be ordered by “NanoBRET Abs IC50” value: greater than 20000 nM for the first, greater than 20000 nM for the second.

B3 and B4 cannot be ordered by “NanoBRET Abs IC50” value: greater than 20000 nM for the first, greater than 20000 nM for the second.

B5 and B6 cannot be ordered by “NanoBRET Abs IC50” value: greater than 20000 nM for the first, 37900 nM for the second.

B7 and B8 cannot be ordered by “NanoBRET Abs IC50” value: 42400 nM for the first, greater than 20000 nM for the second.

Compared with B9, B10 is higher in “NanoBRET Abs IC50” value: 15300 nM for the first, greater than 20000 nM for the second.

biological target: T3, B-cat-Halo (Homo sapiens (Human), UniProt P35222 1-781); assay: cell-based or functional assay
T3 sequence: T2 sequence (looked up)

Going from Ac-[αAllylPro]D[tBuAla][B5(3)]D[Phe(3-COOH)]SAFL[PyrS2″][3Thi][Bta]A-NH2 (staple 1-4, 4-11) [I-2050] to Ac-[αAllylPro]D[tBuAla][B5(3)]D[TfeGA]AAFL[PyrS2″][3Thi][Bta]Q-NH2 (staple 1-4, 4-11; not fully specified (residue 9)) [I-2048], the “NanoBRET Abs IC50” value rises from 4900 nM to 28800 nM (5.9-fold).

Compared with Ac-[αAllylPro]D[tBuAla][B5(3)]D[Phe(3-COOH)]NAFL[PyrS2″][3Thi][Bta]A-NH2 (staple 1-4, 4-11) [I-2049], Ac-[αAllylPro]D[tBuAla][B5(3)]D[Phe(3-COOH)]AAFL[PyrS2″][3Thi][Bta]NAAA-NH2 (staple 1-4, 4-11) [I-2046] is 1.6-fold lower in “NanoBRET Abs IC50” value: 4500 nM for the first, 2900 nM for the second.
